Results taken from PMC11088715, “CsEXL3 regulate mechanical harvest-related droopy leaves under the transcriptional activation of CsBES1.2 in tea plant”.

Experiments:
CsBES1.2-MBP [1] = target: T1, CsBES1.2-MBP (Camellia sinensis (cDNA from cv. …, UniProt UPI0010362774 1-322)); experiment: competition; unlabeled mutant vs biotin-P2 probe; did not outcompete; Beyotime Chemiluminescent EMSA Kit; 6.5% polyacrylamide gel, 60 V 65 min; binding buffer, salt, pH and temperature not stated; settings: protein: recombinant; tags: MBP (pMAL-c5x); label: unlabeled; blunt
T1 sequence: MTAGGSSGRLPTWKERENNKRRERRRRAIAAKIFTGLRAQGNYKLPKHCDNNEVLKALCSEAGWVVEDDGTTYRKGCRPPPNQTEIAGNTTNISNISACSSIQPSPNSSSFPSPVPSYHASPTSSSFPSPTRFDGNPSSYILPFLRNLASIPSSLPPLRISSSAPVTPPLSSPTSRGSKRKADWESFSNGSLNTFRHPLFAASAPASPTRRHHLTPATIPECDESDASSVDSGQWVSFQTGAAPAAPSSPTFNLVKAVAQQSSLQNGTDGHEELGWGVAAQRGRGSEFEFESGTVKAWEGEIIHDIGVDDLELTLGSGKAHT

CsBES1.2-MBP [2] = target: T1, CsBES1.2-MBP; experiment: EMSA; outcompeted by unlabeled probe; stronger than P1 per text; Beyotime Chemiluminescent EMSA Kit; 6.5% polyacrylamide gel, 60 V 65 min; binding buffer, salt, pH and temperature not stated; settings: protein: recombinant; tags: MBP (pMAL-c5x); label: 5' biotin (probe); blunt
CsBES1.2-MBP [3] = target: T1, CsBES1.2-MBP; experiment: EMSA; weaker than P2 E-box probe per text; Beyotime Chemiluminescent EMSA Kit; 6.5% polyacrylamide gel, 60 V 65 min; binding buffer, salt, pH and temperature not stated; settings: protein: recombinant; tags: MBP (pMAL-c5x); label: 5' biotin (probe); blunt

B1: Mutant CsEXL3 promoter P2 competitor (dsDNA)
DNA 1: TGAATCCAAAAAATGCAGAACT
DNA 2: AGTTCTGCATTTTTTGGATTCA
binding result (CsBES1.2-MBP [1]): no binding

B2: CsEXL3 promoter P2 (E-box) probe (dsDNA)
DNA 1: TGAATCCCACGTGTGCAGAACT
DNA 2: AGTTCTGCACACGTGGGATTCA
binding result (CsBES1.2-MBP [2]): binds

B3: CsEXL3 promoter P1 (BRRE-box) probe (dsDNA)
DNA 1: GCGAGGCGACGAGGCGGAGG
DNA 2: CCTCCGCCTCGTCGCCTCGC
binding result (CsBES1.2-MBP [3]): binds
